The source of these data is patent US20120213799A1 (published 2012).

The labels stand for the following.
T1: recombinant human FKN (R&D Systems, Catalog No. 362-CX/CF) (UniProt P78423 25-100)
T1 chain: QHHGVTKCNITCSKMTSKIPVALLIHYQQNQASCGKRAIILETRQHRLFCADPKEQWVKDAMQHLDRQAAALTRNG

T2: soluble hFKN-SEAP (extracellular region of human fractalkine conjugated to secreted alkaline phosphatase) (UniProt P78423 25-341)
T2 chain: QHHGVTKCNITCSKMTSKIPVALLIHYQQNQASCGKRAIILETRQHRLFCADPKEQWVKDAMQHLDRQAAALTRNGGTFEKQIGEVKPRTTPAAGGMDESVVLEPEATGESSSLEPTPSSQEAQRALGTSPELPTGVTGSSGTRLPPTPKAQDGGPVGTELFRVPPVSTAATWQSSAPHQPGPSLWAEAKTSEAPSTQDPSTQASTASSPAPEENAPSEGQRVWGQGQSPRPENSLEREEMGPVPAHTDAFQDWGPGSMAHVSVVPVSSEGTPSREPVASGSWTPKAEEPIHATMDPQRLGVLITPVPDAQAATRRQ

B1: chimeric (antibody, V domains shown)
VH: QVQLQQSGPELVKPGASVKMSCKASGYTFTNYYIHWVKQRPGQGLEWIGWIYPGDGSPKFNERFKGKTTLTADKSSNTAYMLLSSLTSEDSAIYFCATGPTDGDYFDYWGQGTTLTVSS
VL: DIQMTQSPASLSASVGETVTITCRASGNIHNFLAWYQQKQGKSPQFLVYNEKTLADGVPSRFSGSGSGTQYSLKINSLQPEDFGIYFCQQFWSTPYTFGGGTKLEIK
B2: H3-2L2 (antibody, V domains shown)
VH: QVQLVQSGAEVKKPGASVKVSCKASGYTFTNYYIHWVKQAPGQGLEWIGWIYPGDGSPKFNERFKGRTTLTADKSTNTAYMLLSSLRSEDTAVYFCATGPTDGDYFDYWGQGTTVTVSS
VL: DIQMTQSPSSLSASVGDRVTITCRASGNIHNFLAWYQQKPGKAPKFLVYNEKTLADGVPSRFSGSGSGTQYTLTISSLQPEDFATYFCQQFWSTPYTFGGGTKVEIK
B3: HK2L4 (antibody, V domains shown)
VH: QVQLVQSGAEVKKPGASVKVSCKASGYTFTNYYIHWVRQAPGQGLEWIGWIYPGDGSPKFNERFKGRTTMTADTSTSTAYMELSSLRSEDTAVYFCARGPTDGDYFDYWGQGTTVTVSS
VL: DIQMTQSPSSLSASVGDRVTITCRASGNIHNFLAWYQQKPGKAPKLLIYNEKTLADGVPSRFSGSGSGTDYTLTISSLQPEDFATYFCQQFWSTPYTFGGGTKVEIK
B4: H3L4 (antibody, V domains shown)
VH: QVQLVQSGAEVKKPGASVKVSCKASGYTFTNYYIHWVKQAPGQGLEWIGWIYPGDGSPKFNERFKGRTTLTADKSTNTAYMLLSSLRSDDTAVYFCATGPTDGDYFDYWGQGTTVTVSS
VL: DIQMTQSPSSLSASVGDRVTITCRASGNIHNFLAWYQQKPGKAPKLLIYNEKTLADGVPSRFSGSGSGTDYTLTISSLQPEDFATYFCQQFWSTPYTFGGGTKVEIK
B5: H3L2 (antibody, V domains shown)
VH: QVQLVQSGAEVKKPGASVKVSCKASGYTFTNYYIHWVKQAPGQGLEWIGWIYPGDGSPKFNERFKGRTTLTADKSTNTAYMLLSSLRSDDTAVYFCATGPTDGDYFDYWGQGTTVTVSS
VL: DIQMTQSPSSLSASVGDRVTITCRASGNIHNFLAWYQQKPGKAPKFLVYNEKTLADGVPSRFSGSGSGTQYTLTISSLQPEDFATYFCQQFWSTPYTFGGGTKVEIK
B6: H3-2L4 (antibody, V domains shown)
VH: QVQLVQSGAEVKKPGASVKVSCKASGYTFTNYYIHWVKQAPGQGLEWIGWIYPGDGSPKFNERFKGRTTLTADKSTNTAYMLLSSLRSEDTAVYFCATGPTDGDYFDYWGQGTTVTVSS
VL: DIQMTQSPSSLSASVGDRVTITCRASGNIHNFLAWYQQKPGKAPKLLIYNEKTLADGVPSRFSGSGSGTDYTLTISSLQPEDFATYFCQQFWSTPYTFGGGTKVEIK
B7: mouse anti-hFKN mAb clone 3A5-2 (antibody, V domains shown)
VH: QVQLQQSGPELVKPGASVKMSCKASGYTFTNYYIHWVKQRPGQGLEWIGWIYPGDGSPKFNERFKGKTTLTADKSSNTAYMLLSSLTSEDSAIYFCATGPTDGDYFDYWGQGTTLTVSS
VL: DIQMTQSPASLSASVGETVTITCRASGNIHNFLAWYQQKQGKSPQFLVYNEKTLADGVPSRFSGSGSGTQYSLKINSLQPEDFGIYFCQQFWSTPYTFGGGTKLEIK
B8: mouse-human chimeric 3A5-2 mAb (antibody, V domains shown)
VH: QVQLQQSGPELVKPGASVKMSCKASGYTFTNYYIHWVKQRPGQGLEWIGWIYPGDGSPKFNERFKGKTTLTADKSSNTAYMLLSSLTSEDSAIYFCATGPTDGDYFDYWGQGTTLTVSS
VL: DIQMTQSPASLSASVGETVTITCRASGNIHNFLAWYQQKQGKSPQFLVYNEKTLADGVPSRFSGSGSGTQYSLKINSLQPEDFGIYFCQQFWSTPYTFGGGTKLEIK
B9: humanized anti-hFKN mAb H3L2-IgG2 (antibody, V domains shown)
VH: QVQLVQSGAEVKKPGASVKVSCKASGYTFTNYYIHWVKQAPGQGLEWIGWIYPGDGSPKFNERFKGRTTLTADKSTNTAYMLLSSLRSDDTAVYFCATGPTDGDYFDYWGQGTTVTVSS
VL: DIQMTQSPSSLSASVGDRVTITCRASGNIHNFLAWYQQKPGKAPKFLVYNEKTLADGVPSRFSGSGSGTQYTLTISSLQPEDFATYFCQQFWSTPYTFGGGTKVEIK
B10: humanized anti-hFKN mAb H3-2L2-IgG2 (antibody, V domains shown)
VH: QVQLVQSGAEVKKPGASVKVSCKASGYTFTNYYIHWVKQAPGQGLEWIGWIYPGDGSPKFNERFKGRTTLTADKSTNTAYMLLSSLRSEDTAVYFCATGPTDGDYFDYWGQGTTVTVSS
VL: DIQMTQSPSSLSASVGDRVTITCRASGNIHNFLAWYQQKPGKAPKFLVYNEKTLADGVPSRFSGSGSGTQYTLTISSLQPEDFATYFCQQFWSTPYTFGGGTKVEIK
B11: humanized anti-hFKN mAb H3-L4-IgG2 (antibody, V domains shown)
VH: QVQLVQSGAEVKKPGASVKVSCKASGYTFTNYYIHWVKQAPGQGLEWIGWIYPGDGSPKFNERFKGRTTLTADKSTNTAYMLLSSLRSDDTAVYFCATGPTDGDYFDYWGQGTTVTVSS
VL: DIQMTQSPSSLSASVGDRVTITCRASGNIHNFLAWYQQKPGKAPKLLIYNEKTLADGVPSRFSGSGSGTDYTLTISSLQPEDFATYFCQQFWSTPYTFGGGTKVEIK
B12: humanized anti-hFKN mAb H3-2L4-IgG2 (antibody, V domains shown)
VH: QVQLVQSGAEVKKPGASVKVSCKASGYTFTNYYIHWVKQAPGQGLEWIGWIYPGDGSPKFNERFKGRTTLTADKSTNTAYMLLSSLRSEDTAVYFCATGPTDGDYFDYWGQGTTVTVSS
VL: DIQMTQSPSSLSASVGDRVTITCRASGNIHNFLAWYQQKPGKAPKLLIYNEKTLADGVPSRFSGSGSGTDYTLTISSLQPEDFATYFCQQFWSTPYTFGGGTKVEIK

In one assay the target is cynomolgus FKN-SEAP (human;). Put plainly: BIACORE. Background: SPR reads the build-up and loss of mass on a sensor chip optically.
B1 came in with a Kd of 6.62 pM.
Regarding B2, the Kd was 6.75 pM.
The molecule B3 yielded a Kd of 26 pM.
Molecule B4 returned an equilibrium dissociation constant (Kd) of 12 pM.
Same read-out and setting: the same measure for B5: 9.62 pM.
The molecule B6 displayed a Kd of 7.71 pM.

The target of another assay is T1, recombinant human FKN (R&D Systems, …). Put plainly: BIACORE.
As for B7, the Kd was found to be 600 pM.

Another assay addresses T2, soluble hFKN-SEAP (extracellular region …). Put plainly: BIACORE.
With B8, binding was put at a Kd of 7.13 pM.
B9: the affinity, expressed as Kd, was 8.84 pM.
On the same count and under the same terms, the value for B10 was 5.92 pM.
B11: the Kd worked out at 6.43 pM.
B12 came in with a Kd of 5.34 pM.

The term Kd denotes the concentration at which binding is half-saturated.
